Patent US20260109787A1 (NATIONAL UNIVERSITY CORPORATION YAMAGATA UNIVERSITY, published 2026)

Tests used:
[1] = molecular target: T1, VHH-SnoopCatcher (fragment released from VHH-SnoopCatcher-Herceptin H chain by thrombin); experiment: SDS-PAGE of the purified thrombin-cleaved sample
T1 construct: Seen only as a band on SDS-PAGE, together with VHH-SnoopTag

[2] = molecular target: T2, VHH-SpyCatcher-CD3 H chain; experiment: SDS-PAGE before and after thrombin cleavage; the complex bands are lost after cleavage
T2 construct: Fusion protein expressed in Expi293F cells; also called second protein; VHH-SpyCatcher-CD3 H chain region
Experimental: Next, it was examined whether the band at the estimated molecular weight of the complex in Example 1(3) above was derived from the complex that included the VHH-SpyTag-CD3 L chain and the VHH-SpyCatcher-CD3 H chain. Specifically, the protein was purified in the same manner as in Example 1(2) above, and the elution fraction after the purification was added to a thrombin buffer (2.5 mmol/l CaCl₂), 150 mmol/l NaCl, 20 mmol/l Tris-HCl (pH8.0)). After the addition, the resulting mixture was dialyzed for 6 hours. Then, thrombin (cleaving ability: 2 unit/μl, manufactured by Wako Pure Chemical Industries, Ltd.) was added in accordance with the yield of the protein. After the addition, the mixture was left to stand at 25° C. overnight. After the standing, a sample after the cleavage reaction was purified using a protein A column. After the purification, a purified thrombin-cleaved sample was obtained. Then, SDS-PAGE was conducted. The SDS-PAGE was conducted in the same manner as in Example 1(3) above, except that the purified thrombin-cleaved sample was used as a sample for the SDS-PAGE in addition to the purified sample. […]

[3] = molecular target: T3, VHH-SpyCatcher (fragment released from VHH-SpyCatcher-CD3 H chain by thrombin); experiment: SDS-PAGE of the purified thrombin-cleaved sample
T3 construct: Seen only as a band on SDS-PAGE, together with VHH-SpyTag

B1: VHH-SnoopTag (fragment released from VHH-SnoopTag-Herceptin L chain by thrombin) (other, not shown: small tags and cut ends)
chain: QVQLVESGGALVQPGGSLRLSCAASGFPVNRYSMRWYRQAPGKEREWVAGMSSAGDRSSYEDSVKGRFTISRDDARNTVYLQMNSLKPEDTAVYYCNVNVGFEYWGQGTQVTVSSGGSGGKLGDIEFIKVNKGGSGGGGSGG
notes: Seen only as a band on SDS-PAGE, together with VHH-SnoopCatcher
**Q.** Does B1 bind [1]?
**A.** Result: binds

B2: VHH-SpyTag-CD3 L chain (other)
chain: QVQLVESGGALVQPGGSLRLSCAASGFPVNRYSMRWYRQAPGKEREWVAGMSSAGDRSSYEDSVKGRFTISRDDARNTVYLQMNSLKPEDTAVYYCNVNVGFEYWGQGTQVTVSSGGSGGAHIVMVDAYKPTKGGSGGGGSGGLVPRGSHMHMDIVLTQSPAIMSASPGEKVTMTCSASSSVSYMNWYKQKSGTSPKRWTYDTSKLASGVPARFSGSGSGTSYSLTISSMEAEDAATYYCQQWSSNPPTFGSGTKLEIKRTVAAPSVFIFPPSDEQLKSGTASVVCLLNNFYPREAKVQWKVDNALQSGNSQESVTEQDSKDSTYSLSSTLTLSKADYEKHKVYACEVTHQGLSSPVTKSFNRGEC
notes: Fusion protein expressed in Expi293F cells; also called first protein; VHH-SpyTag-CD3 L chain region
**Q.** Does B2 bind [2]?
**A.** Result: binds

B3: VHH-SpyTag (fragment released from VHH-SpyTag-CD3 L chain by thrombin) (other, not shown: small tags and cut ends)
chain: QVQLVESGGALVQPGGSLRLSCAASGFPVNRYSMRWYRQAPGKEREWVAGMSSAGDRSSYEDSVKGRFTISRDDARNTVYLQMNSLKPEDTAVYYCNVNVGFEYWGQGTQVTVSSGGSGGAHIVMVDAYKPTKGGSGGGGSGG
notes: Seen only as a band on SDS-PAGE, together with VHH-SpyCatcher
**Q.** Does B3 bind [3]?
**A.** Result: binds
